Test results: patent US10941200B2, “TREM2 cleavage modulators and uses thereof” (Deutsches Zentrum Für Neurodegenerative Erkrankungen EV, priority 2016, dated 2021)
“Also recorded” adds a separate entry of the source.

Tests used:
Assay type in all cases: cell-based
[1] = tested on: human TREM2; test: MALDI-TOF mass spectrometry analysis of TREM2 ectodomain cleavage (C-terminal fragment) in HEK293 cells; conditions: C-terminally FLAG-tagged TREM2 in HEK293 cells; FIG. 1B
Method: HEK293 Flp-In cells stably expressing WT and H157Y TREM2 were harvested in PBS. Cell pellets were frozen at −20° C. until use. Cells were lysed in lysis buffer (4% DDM, 0.1% N-octylglucoside, 10 mM Tris-HCl, pH 8.0, 5 mM EDTA, and 140 mM NaCl) containing protease inhibitor mix (Sigma-Aldrich) for 20 min on ice. Following a clarifying spin at 13,000 g for 20 min, supernatants were subjected to a second clarifying spin by centrifugation at 100,000 g for 1 h, and incubated with anti-FLAG M2-agarose (Sigma-Aldrich) overnight by rotation at 4° C. Beads were washed four times with IP/MS buffer (0.1% N-octylglucoside, 10 mM Tris-HCl, pH 8.0, 5 mM EDTA, and 140 mM NaCl) and two times with water. Beads were stored at −20° C. until IP/MS analysis.
IP/MS analysis was performed using Voyager DE STR (Applied Biosystems) as described previously). Immunoprecipitated peptides were eluted with TFA/CH3CN/water (1:20:20) saturated with α-cyano-4-hydroxy cinnamic acid. The dissolved samples were dried on a stainless plate and subjected to MALDI-TOF MS analysis.

[2] = biological target: T1, human TREM2 (Homo sapiens, UniProt Q9NZC2); test: sTREM2 ELISA of conditioned media from HEK293 Flp-In cells stably overexpressing wt TREM2 (ectodomain shedding); conditions: antibody 50 μg/mL, 24 hrs; normalized to immature TREM2; FIG. 7B
T1 construct: HEK293 Flp-In cells either expressing human full-length TREM2 or empty vector; expressed in transfected cells
T1 sequence (Q9NZC2 19-230): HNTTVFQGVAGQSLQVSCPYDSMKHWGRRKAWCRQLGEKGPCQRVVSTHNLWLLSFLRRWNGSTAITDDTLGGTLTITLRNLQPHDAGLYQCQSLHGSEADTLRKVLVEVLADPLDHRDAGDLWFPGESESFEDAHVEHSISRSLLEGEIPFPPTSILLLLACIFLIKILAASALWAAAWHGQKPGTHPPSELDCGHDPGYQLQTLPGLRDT
Method: (§1) 1*10^6-1.5*10^6 cells were seeded in the 6-well format. 24 hours later fresh medium was added to the cells. Antibody clones as generated by Dr. Feederle (Helmholtz Center Munich, Core Facility Monoclonal Antibody Development) were added simultaneously, i.e. for overnight treatment (about 24 hrs), at a final concentration of 50 μg/mL. On the next day, conditioned media and cells were collected and processed as described under “Preparation of conditioned media, cell lysates, and immunoblotting”.
(§2) ADAM10 inhibitor G1254023X (5 μM final concentration) and a control monoclonal antibody, which is specific for the C terminus of human TREM2, were used as positive and negative controls, respectively.
For quantitation of levels of sTREM2 in cell culture supernatants, an ELISA for human sTREM2 was established using the Meso Scale Discovery SECTOR Imager 2400. Streptavidin-coated 96-well plates were blocked overnight at 4° C. in 0.5% bovine serum albumin (BSA) and 0.05% Tween 20 in PBS (pH 7.4) (blocking buffer). For detection of human sTREM2, plates were shaken for 1 hour at room temperature with biotinylated polyclonal goat anti-human TREM2 capture antibody (0.25 mg/ml; R&D Systems) diluted in blocking buffer. Plates were washed subsequently four times with 0.05% Tween 20 in PBS (washing buffer) and incubated for 2 hours at room temperature with samples diluted 1:4 in 0.25% BSA and 0.05% Tween 20 in PBS (pH 7.4) (assay buffer) supplemented with protease inhibitors (Sigma). Recombinant human TREM2 protein (Holzel Diagnostika) was diluted in assay buffer in a two-fold serial dilution and used for the standard curve (concentration range, 4000 to […]). Plates were washed three times for 5 min with washing buffer before incubation for 1 hour at room temperature with mouse monoclonal anti-TREM2 antibody (1 mg/ml; Santa Cruz Biotechnology; B-3) diluted in blocking buffer. After three additional washing steps, plates were incubated with a SULFO-TAG-labeled anti-mouse secondary antibody (1:1000; Meso Scale Discovery) and incubated for 1 hour in the dark. Last, plates were washed three times with washing buffer followed by two washing steps in PBS and developed by adding Meso Scale Discovery Read buffer. The light emission at 620 nm after electrochemical stimulation was measured using the Meso Scale Discovery SECTOR Imager 2400 reader. To quantify the levels of sTREM2 secreted from HEK293 Flp-In cells, conditioned media from biological replicates were analyzed in duplicates. The sTREM2 standard curves were generated using the MasterPlex ReaderFit software (MiraiBio Group, Hitachi Solutions America) through a five-parameter logistic fit. Levels of sTREM2 were subsequently normalized to levels of immature TREM2 as quantified from Western Blots.

[3] = biological target: T1, human TREM2; test: Immunoblotting of mature TREM2 in membrane fractions of HEK cells stably overexpressing wt TREM2; conditions: antibody 50 μg/mL, 24 hrs; normalized to immature TREM2; FIG. 7C
Method: HEK293 Flp-In cells stably overexpressing TREM2 or TREM2-DAP12 cDNA constructs were seeded at a density of 1.5×10^5/cm^2 and medium changed 48 h post seeding. Conditioned medium was collected after 18-20 h, immediately cooled down on ice, centrifuged at 13,000 rpm for 20 min at 4° C. and supernatants frozen at −20° C. until analysis. Supernatants were directly subjected to standard 15% SDS-PAGE. To prepare membrane fractions, cells were washed twice with ice-cold PBS, resuspended in ice-cold hypotonic buffer (0.01 M Tris, pH 7; 1 mM EDTA; 1 mM EGTA), freshly supplemented with protease inhibitor (Sigma) and incubated on ice for 30 min. After snap freezing in liquid
nitrogen and thawing, the disrupted cells were centrifuged at 13,000 rpm for 45 min at 4° C.
The resulting pellet was resuspended in STE lysis buffer (150 mM NaCl, 50 mM Tris-HCl,
pH 7.6, 2 mM EDTA, 1% Triton-X 100), incubated for 20 min on ice and clarified by centrifugation at 13,000 rpm for 30 min at 4° C. Protein concentrations were measured using the BCA method, equal amounts of protein were mixed with Laemmli sample buffer, supplemented with beta mercaptoethanol, separated by SDS-PAGE and transferred onto polyvinylidene difluoride membranes (Hybond P; Amersham Biosciences, Aylesbury, UK). Bound antibodies were visualized by corresponding HRP-conjugated secondary antibodies
using enhanced chemiluminescence technique (Pierce). Quantification of immunoblots was performed on a LAS-4000 image reader and analyzed using the Multi-Gauge V3.0 software (both Fujifilm Life Science).
as §1, §2

Molecule	TREM2 C-terminal fragment cleavage peak in MALDI-TOF mass spectra upon ADAM inhibition [1]	sTREM2 levels (ELISA), result in words [2]	levels of mature TREM2 in the membrane fraction (quantified immunoblots), result in words [3]
CNC(=O)[C@H](Cc1c[nH]c2ccccc12)NC(=O)[C@@H](CC(=O)NO)CC(C)C [GM]	no identified peak; also recorded: did not show any peak		
clone 7A12: rat monoclonal antibody against TREM2 cleavage site peptide; heavy chain variable SEQ ID NO: 25, light chain variable SEQ ID NO: 35 (antibody, V domains shown, Clone 7A12 variable region of the heavy chain; Clone 7A12 variable region of the light chain) VH: EVKLLESGGGLVQPGGSMRLSCAASGFTFTDFYMNWIRQPAGKAPEWLGLIRNKANGYTTQYNPSVKGRFTISRDNTQNMLYLQMNTLRGEDTATYYCARIGINNGGSLDYWGQGVMVTVSS VL: DILINQSPASLTVSAGEKVTMSCKSSQSLLYSEKNQDYLAWYQQKPGQSPKLLMYGASYRHTGVPDRFTGSGSGTDFTLTISSVQAEDLADYYCEQTYSYPYTFGAGTKLELK		slight trend toward reduced sTREM2 levels	increased levels of TREM2 in the membrane fraction
clone 8A11: rat monoclonal antibody against TREM2 cleavage site peptide; heavy chain variable SEQ ID NO: 26, light chain variable SEQ ID NO: 36 (antibody, V domains shown, Clone 8A11 variable region of the heavy chain; Clone 8A11 variable region of the light chain) VH: EVKLLESGGGLVQPGGSMRLSCAASGFTFTDFYMNWIRQPAGKAPEWLGLIRNKTKGYTTEYNTSVKGRFTISRDNTQNMLYLQMNSLRPEDTATYYCARIGVNNGGSLDYWGQGVMVTVSS VL: DILIIQSPASLTVSAGARVTMSCKSSQSLLYSENNQDYLAWYQQKPGQFPKLLIYGASNRHTGVPDRFTGSGSGTDFTLTISSVQAEDLADYYCEQTYSYPYTFGAGTKLELK			increased levels of TREM2 in the membrane fraction
clone 18F9: rat monoclonal antibody against TREM2 cleavage site peptide; heavy chain variable SEQ ID NO: 29, light chain variable SEQ ID NO: 39 (antibody, V domains shown, Clone 18F9 variable region of the heavy chain; Clone 18F9 variable chain of the light region) VH: EVKLLESGGGLVQPGGSMRLSCVVSGFTFTDFYMNWIRQAAGKAPEWLGLIRNKVNGYRTEYNPSVKGRFTISRDNIQNMLYLQMNTLRAEDTATYYCARIGINNGGSLDYWGQGVMVTVSS VL: DILINQSPASLTVSAGEKVTMSCKSSQSLLYSENNQDYLAWYQQKPGQFPKLLIYGASNRHTGVPDRFTGSGSGTDFTLTISSVQAEDLADYYCEQTYSYPYTFGAGTKLELK		slight trend toward reduced sTREM2 levels	
clone 21A3: rat monoclonal antibody against TREM2 cleavage site peptide; heavy chain variable SEQ ID NO: 27, light chain variable SEQ ID NO: 37 (antibody, V domains shown, Clone 21A3 variable region of the heavy chain; Clone 21A3 variable region of the light chain) VH: EVKLLESGGGLVQPGGSMRLSCAASGFTFTDFYMNWIRQPAGKAPEWLGLIRNKANGYTTQYNPSVKGRFTISRDNTQNMLYLQMNTLRGEDTATYYCARIGINNGGSLDYWGQGVMVTVSS VL: DILINQSPASLTVSAGEKVTMSCKSSQSLLYSEKNQDYLAWYQQKPGQSPKLLMYGASYRHTGVPDRFTGSGSGTDFTLTISSVQAEDLADYYCEQTYSYPYTFGAGTKLELK		slight trend toward reduced sTREM2 levels	
clone 10C3: rat monoclonal antibody against TREM2 cleavage site peptide; heavy chain variable SEQ ID NO: 28, light chain variable SEQ ID NO: 38 (antibody, V domains shown, Clone 10C3 variable region of the heavy chain; Clone 10C3 variable region of the light chain) VH: EVKLLESGGGLVQPGGSMRLSCAASGFTFTDFYMNWIRQPAGETPEWLGLIRNKTKGYTTEYNPSVKGRFTISRDNTQNMLYLQMNSLRPEDTATYYCARIGTNNGGSLDYWGQGVMVTVSS VL: DILIIQSPASLTVSAGARVTMSCKSSQSLLYSENNQDYLAWYQQKPGQFPKLLIYGASNRHTGVPDRFTGSGSGTDFTLTISSVQAEDLADYYCEQTYSYPYTFGAGTKLELK		slight trend toward reduced sTREM2 levels	increased levels of TREM2 in the membrane fraction
clone 15C5: rat monoclonal antibody against TREM2 cleavage site peptide; heavy chain variable SEQ ID NO: 30, light chain variable SEQ ID NO: 40 (antibody, V domains shown, Clone 15C5 variable region of the heavy chain; Clone 15C5 variable region of the light chain) VH: EVKLLESGGGLVQPGGSMRLSCAASGFTFTDFYMNWIRQPAGKAPEWLGLIRNKAYGYTTEYNPSVKGRFTISRDNTQDMLYLQMNTLRAEDTATYYCARIGINYGGSLDYWGQGVMVTVSS VL: DILINQSPASLTVSAGEKVTVSCKSSQSLLYSESNQDYLAWYQQKPGQFPKLLIYGASYRHTGVPDRFTGSGSGTDFTLTISSVQAEDLAHYYCEQTYSYPYTFGAGTKLELK		slight trend toward reduced sTREM2 levels	
